Test results taken from the DeepSol protein solubility set.

assay: soluble on expression in E. coli; label from the status in PepcDB or PDB records

Which “soluble on expression in E. coli” value does the source give for “MGHHHHHHSHMTTNSLLIIDFEFTMPDGKYSPQNFFPEIIEAGIVKSIDDEVVETFSSYVRPKKFPKLTKRCKSFLKITQKQVDEGMRFEDFIRKLNELDPEKNSTIITWGNMDMKVLKQNCMFNHIPFPFKGEMRDLSLEYKNFFGDRTLTGLWKAAEEYGDSGTGTHHKALDDALTAYKLFKLVEQDKQYLEKPKPPTIGERIDLTELLKRAT” here?
Its value is “soluble”.

For “MSDKNIQDRAAGAIMGAFIGDALGLGPHWYYDLSELRRDYDDWITGYTDPKPDRYHAGLKAGQLSQSGFILKLMVRSLVGCGGYDTEDFCHRMDEELFPLLDGTPVNGPGGYTSQSIRETWRRRVQQMLPWGQTGGHADTTEAVERTLAIAVRYAYQPEQLAAAVSANTTLTQTDETIVSMTVAYGAVLGLLIQGHALDTGLSGKLMDLVKSGALPFHAVTGDDLQPPRPGDPDPPRAGRFASPDALLTPSYMAAAAVDPEIRIEPAWKVSIVYGMPCAIYHQLPAAYYLAARFRDDFKSAVLHAVNGGGQNQARAMLTGALAGAQTGLSGIPQYLLDGLDNSAVLGKLAVELAASVNPIMAGDPNSLEHHHHHH”, which “soluble on expression in E. coli” value is on record?
Its value is “not soluble”.

With “AESTLGAAAAQSGRYFGTAIASGKLGDSAYTTIASREFNMVTAENEMKIDATEPQRGQFNFSAGDRVYNWAVQNGKQVRGHTLAWHSQQPGWMQSLSGSTLRQAMIDHINGVMGHYKGKIAQWDVVSHAFSDDGSGGRRDSNLQRTGNDWIEVAFRTARAADPAAKLCYNDYNIENWTWAKTQGVYNMVRDFKQRGVPIDCVGFQSHFNSGSPYNSNFRTTLQNFAALGVDVAITELDIQGASSSTYAAVTNDCLAVSRCLGITVWGVRDTDSWRSGDTPLLFNGDGSKKAAYTAVLNALNGGSSTPPPSGGGQIKGVGSGRCLDVPNASTTDGTQVQLYDCHSATNQQWTYTDAGELRVYGDKCLDAAGTGNGTKVQIYSCWGGDNQKWRLNSDGSIVGVQSGLCLDAVGGGTANGTLIQLYSCSNGSNQRWTRT” as the sequence, how does the “soluble on expression in E. coli” value read?
The value was “soluble”.

Which “soluble on expression in E. coli” value does the source give for “MTKPLILASQSPRRKELLDLLQLPYSIIVSEVEEKLNRNFSPEENVQWLAKQKAKAVADLHPHAIVIGADTMVCLDGECLGKPQDQEEAASMLRRLSGRSHSVITAVSIQAENHSETFYDKTEVAFWSLSEEEIWTYIETKEPMDKAGAYGIQGRGALFVKKIDGDYYSVMGLPISKTMRALRHFDIRA” here?
Its value is “soluble”.

Which “soluble on expression in E. coli” value does the source give for “QTGGSFFEPFNSYNSGTWEKADGYSNGGVFNCTWRANNVNFTNDGKLKLGLTSSAYNKFDCAEYRSTNIYGYGLYEVSMKPAKNTGIVSSFFTYTGPAHGTQWDEIDIEFLGKDTTKVQFNYYTNGVGGHEKVISLGFDASKGFHTYAFDWQPGYIKWYVDGVLKHTATANIPSTPGKIMMNLWNGTGVDDWLGSYNGANPLYAEYDWVKYTSN” here?
Its value is “soluble”.

Which “soluble on expression in E. coli” value does the source give for “MLLFSRQGKLRLQKWYMAYPDKVKKKITRELVTTILARKPKMCSFLEWKDCKIVYKRYASLYFCCAIEQNDNELLTLEIIHRYVELLDKYFGSVCELDIIFNFEKAYFILDELLIGGEIQETSKKNVLKAIASQDLLQEDETPQSFFDDHGLG” here?
Its value is “soluble”.

Which “soluble on expression in E. coli” value does the source give for “MDQIFNKVGSYWLGQKANKQFDSVGNDLNSVSTSIEGGTKWLVNKIKGKMQKPLPELLKEYDLPIGIFPGDATNYEFDEETKKLTVLIPSICEVGYKDSSVLKFTTTVTGHLEKGKLTDVEGIKTKVMIWVKVTSISTDASKVYFTAGMKKSRSRDAYEVQRNGLRVDKF” here?
Its value is “soluble”.

For “MMVYPVKHSPLLRQPEHFIARDELKALVQKVTHNLVNIKDETGEFLLRLDDGRVIDTKGWAGWEWTHGVGLYGMYHYYQQTGDQTMRKIIDDWFADRFAEGATTKNVNTMAPFLTLAYRYEETRNPAYLPWLETWAEWAMNEMPRTDHGGMQHITLAEENHQQMWDDTLMMTVLPLAKIGKLLNRPEYVEEATYQFLLHVQNLMDKETGLWFHGWSYDGHHNFANARWARGNSWLTIVIPDFLELLDLPENNAVRRYLVQVLNAQIAALAKCQDESGLWHTLLDDPHSYLEASATAGFAYGILKAVRKRYVERHYAQVAEKAIRGIVKHISPEGELLQTSFGTGMGHDLDFYRHIPLTSMPYGQAMAMLCLTEYLRNYF”, which “soluble on expression in E. coli” value is on record?
Its value is “not soluble”.

For “AYPHIFGNLGVFSLASWFSERDFLRFLNHHPLDKNSKVFIQVGTKEGDAVDDEFAPNMNQAYIDCTLHYYQSLLRTGHPMEHIDLHIMANEIHHEKYWANHFIEFLKFTLK”, which “soluble on expression in E. coli” value is on record?
The value was “not soluble”.

Which “soluble on expression in E. coli” value does the source give for “MNLEPPKAEIRSATRVMGGPVTPRKGPPKFKQRQTRQFKSKPPKKGVQGFGDDIPGMEGLGTDITVICPWEAFNHLELHELAQYGII” here?
Its value is “soluble”.

Which “soluble on expression in E. coli” value does the source give for “MRIGPELLQDLLDRVEGSLAAAIGTADGLLVEGVRKRPLDLEAAIAEHAALWRQARAAYARSLGAEEVGELLVGGTGVVGYLRSMRTRDPEPLFLLLLLTPEANLGQARLAARRLLDRAGGVVAWPT” here?
Its value is “soluble”.

Which “soluble on expression in E. coli” value does the source give for “MGSDKIHHHHHHMRYTLRQLEVFVAIAQHESVSLAARRLAMSQSATSTALAELERQFDCQLLDRIGKRLKLNALGFQLLPKAVALLDRGEEIEELLKGQRGIGSLDVGATLTIGNYLATLLISDFMRRHPGSRVRLHVRNTASIVDRVTHHDLDLGLIEGDCQHDDIVMQPWVEDELTVFCSPRHPLANAGEADLEALMREDWIMREEGSGTRRTLDQAMRHRRGRLNVLLELEHTEAIKRAVESGLGIGCVSHLALRDAFRRGSLVPIATPELDLTRQFTFIWHRHKYLTTAMREFLRLCREMTAGVQRSDEIDLPAVP” here?
Its value is “not soluble”.

For “MSLKTVAVIGAMEQEIELLREMMENVKAVSFGRFSAYEGELAGKRMVLALSGIGKVNAAVATAWIIREFAADCVINTGSAGGLGKGLKVGDVVIGTETAHHDVDVTAFGYAWGQVPQLPARFASDGILIEAAKRAARTFEGAAVEQGLIVSGDRFVHSSEGVAEIRKHFPEVKAVEMEAAAIAQTCHQLETPFVIIRAVSDSADEKADISFDEFLKTAAANSAKMVAEIVKSL”, which “soluble on expression in E. coli” value is on record?
The value was “soluble”.

Which “soluble on expression in E. coli” value does the source give for “MPADTRPAAIVLMGPTASGKSQLAIDIAKRWGGEVISVDSVLVYRGLDIGTAKPNAAMRASVPHHLIDICEPWETYSAADFAHDARAAIDMIVRRGALPILTGGTGLYFRALLAGLSDMPPAHPEIRAMIAAEAKRDSWAALHTRLAEVDAITAARIHATDPQRIQRALEVYLVSGQSMSDWQNQPPKQRLPLRVLKLVLAPTHRKVLHFRIAQRFKAMLDNGLLAEVNALRTHPSIHAMARPLDLPAMRAVGYRQCWEHLDGMYTAEMLYQRSVAATRQLAKRQLTWLRGELDALWFDPEHDQSRIEKVMEAFLNRLEHHHHHH” here?
The value was “not soluble”.
